{
  "source": "patent US11634477",
  "about": "(dated 2023)",
  "binders": {"B1": {"name": "C135 (antibody, V domains shown)", "VH": "QVQLVESGGGVVQPGRSLRLSCAASGFTFSSYAMHWVRQAPGKGLEWVAVIPFDGRNKYYADSVTGRFTISRDNSKNTLYLQMNSLRAEDTAVYYCASSSGYLFHSDYWGQGTLVTVSS", "VL": "DIQMTQSPSTLSASVGDRVTITCRASQSISNWLAWFQQKPGKAPKLLIYEASSLESGVPSRFSGSGSGTEFTLTISSLQPDDFATYYCQQYNSYPWTFGQGTKVEIK"}, "B2": {"name": "C144 (antibody, V domains shown)", "VH": "EVQLVESGGGLIQPGGSLRLSCAASGFTVSNNYMSWVRQAPGKGLEWVSVIYSGGSTYYADSVKGRFTISRDKSKNTLYLQMNRLRAEDTAVYYCAREGEVEGYNDFWSGYSRDRYYFDYWGQGTLVTVSS", "VL": "QSALTQPASVSGSPGQSITISCTGTSSDVGGYNYVSWYQQHPGKAPKLMIYDVSNRPSGVSNRFSGSKSGNTASLTISGLQAEDEADYYCSSYTSSSTRVFGTGTKVTVL"}, "B3": {"name": "C112 (antibody, V domains shown)", "VH": "QVQLVESGGGVVQPGRSLRLSCAASGFTFSSHAMHWVRQAPGKGLEWVAVISYDGSNKYYADSVKGRFTISRDNSKNTLYLQMNSLRAEDTAVYYCAREDYYDSSGSFDYWGQGTLVTVSS", "VL": "B2 VL with R99W, T103G, V107L"}, "B4": {"name": "C153 (antibody, V domains shown)", "VH": "EVQLVESGGGLIQPGGSLRLSCAASGFTVSSNYMSWVRQAPGKGLEWVSVIYSGYSTYYVDSVKGRFTISRDNSKNTLYLQMNSLRAEDTAVYYCARVGGAHSGYDGSFDYWGQGTLVTVSS", "VL": "QSALTQPASVSGSPGQSITISCTGTSSDVGSYNLVSWYQQHPGKAPKLMIYEGSKRPSGVSNRFSGSKSGNTASLTISGLQAEDEADYYCCSYAGSSTWVFGGGTKLTVL"}, "B5": {"name": "C010 (antibody, V domains shown)", "VH": "EVQLVESGGGVVQPGRSLRLSCAASGFTFSSYAMHWVRQAPAKGLEWVAVILYDGSGKYYADSVKGRFTISRDNSKNTLYLQMNSLRAEDTAVYYCARDGIVDTALVTWFDYWGQGTLVTVSS", "VL": "not shown"}, "B6": {"name": "C101 (antibody, V domains shown)", "VH": "QVQLVESGGGLIQPGGSLRLSCAASGFIVSSNYMSWVRQAPGKGLEWVSVIYSGGSTFYTDSVKGRFTISRDNSKNTLYLQMNSLRAEDTAVYYCVRDYGDFYFDYWGQGTLVTVSS", "VL": "EIVLTQSPGTLSLSPGERATLSCRASQSVSSSYLAWYQQKPGQAPRLLIYGASSRATGIPDRFSGGGSETDFTLTISRLEPEDCAVYYCQQYGSSPRTFGQGTKVEIK"}, "B7": {"name": "C102 (antibody, V domains shown)", "VH": "B6 VH with T60A, V96A, F102Y", "VL": "not shown"}, "B8": {"name": "C212 (antibody, V domains shown)", "VH": "QVQLVQSGAEVKKPGASVKVSCKASGYTVTGYYIHWVRQAPGQGLEWMGWISPNSGGTNYAQKFQGWVTMTRDMSITTAYMELSRLRSDDTAVYYCARERYFDLGGMDVWGQGTTVTVSS", "VL": "LTQPASVSGSPGQSITISCTGTSSDVGSYNLVSWYQQHPGKAPKLMIYEDSKRPSGVSNRFSGSKSGNTASLTISGLQAEDEADYYCCSYAGSSTRLFGGGTKLTVL"}, "B9": {"name": "C119 (antibody, V domains shown)", "VH": "QVQLVQSGAEVKKPGASVKVSCKASGYTFTSYYMHWVRQAPGQGLEWMGIINPSGGSTSYAQKLQGRVTMTRDTSTSTVYMELSSLRSEDTAVYYCARANHETTMDTYYYYYYMDVWGKGTTVTVSS", "VL": "QSALTQPASVSGSPGQSITISCTGTSSDVGGYKYVSWYQRHPGKAPKLMIYDVSNRPSGVSNRFSGSKSGNTASLTISGLQAEDEADYYCSSYTSSSTSVVFGGGTQLTVL"}, "B10": {"name": "C106 (antibody, V domains shown)", "VH": "QLQLQESGPGLVKPSETLSLTCTVSGASVSSGSYYWSWIRQPPGKGLEWIGYIYYSGSTNYNPSLKSRVTISVDTSKNQFSLKLSSVTAADTAVYYCARERPGGTYSNTWYTPTDTNWFDTWGQGTLVTVSS", "VL": "SYELTQPPSVSVAPGKTARITCGGNNIGSKSVHWYQQKPGQAPVLVIYFDSDRPSGIPERFSGSNSGNTATLTISRVEAGDEADYYCQVWDSSRDHVVFGGGTKLTVL"}, "B11": {"name": "C146 (antibody, V domains shown)", "VH": "EVQLVESGGGLVKPGGSLRLSCAASGLTFTAYRMNWVRQAPGKGLEWLSSISNTNGDIYYADSVKGRFTISRDNAKNSLYLQMNSLRADDTAVYYCARDVASNYAYFDLWGQGTLVTVSS", "VL": "QSALTQPASVSGSPGQSITISCTGTSSDIGVYNYISWSQQHPGKAPKVMIYDVTNRPSGVSNRFSGSKSGNTASLTISGLQAEDEADYYCSSYRGSSTPYVFGTGTKVTVL"}, "B12": {"name": "C036 (antibody, V domains shown)", "VH": "QVQLQQWGAGLLKPSETLSRTCAVFGGSFTNYYWSWIRQSPGKGLEWIGEINDSGITNYNPSLKSRVTISVDTSKNQFSLSLRSVTAADTAVYYCARRRSFSRPSSIDYWGQGTLVTVSS", "VL": "not shown"}, "B13": {"name": "C163 (antibody, V domains shown)", "VH": "QVQLQQWGAGLLKPSETLSLTCAVSGGSLSGFYWTWIRQPPGKGLEWIGETNHFGSTDYKPSLKSRVTISVDMSRNQFSLKVTSVTAADTAVYYCARKPLLHSDLSPGAFDIWGQGTMVTVSS", "VL": "EIVLTQSPGTLSLSPGERATLSCRASQTVSANYLAWYQQKAGQAPRLLIYGASKRATGIPDRFSGSGSGTDFTLSISRLEPEDFAVYYCQQYVTTPRTFGGGTKVEI"}, "B14": {"name": "C161 (antibody, V domains shown)", "VH": "B13 VH with K81I, V82M, P99T, H102F, L105F", "VL": "B13 VL with V29L, S30T, A41P, V93G"}, "B15": {"name": "C162 (antibody, V domains shown)", "VH": "B13 VH with P61A, D72G, V85L, H102Y, L105F, I112V", "VL": "B13 VL with V29L, S30T, A41P, T57A, S77T, V93H"}, "B16": {"name": "C129 (antibody, V domains shown)", "VH": "QVQLVESGGGVVQPGRSLRLSCAASGFTFSSYGMNWVRQAPGKGLEWVAVISYDGSNTYYTDSVKGRFTISRDNSKNTLYLQMNSLRVDDTATYYCAKGPRFGWSYRGGSGFDIWGQGTMVTVSS", "VL": "DIQMTQSPSSLSASVGDRVTITCQASQDISNYLNWYQQKPGKAPKLLIYDASNLETGVPSRFSGSESGTDFTFTISSLQPEDIATYYCQQYDNLPITFGQGTRLEIK"}, "B17": {"name": "C152 (antibody, V domains shown)", "VH": "QVQLVQSGAEVKKPGASVKVSCKASGYTFTSYGISWVRQAPGQGLEWMGWISAYNGNTNYAQKLQGRVTMTTDTSTSTAYMELRSLRSDDTAVFYCARDRGGHDFWSGYGFYYYYGMDVWGQGTTVTVSS", "VL": "DIQMTQSPSSLSASVGDRVTITCRASQGISNYLAWYQQRPGKVPKLLIFAASTLQSGVPSRFSGSGSGTDFTLTISSLQPEDVATYYCQKYNSAPRTFGQGTKVEIK"}, "B18": {"name": "C149 (antibody, V domains shown)", "VH": "QVQLVESGGGVVQPGRSLRLSCAASGFTFSTYGMHWVRQAPGKGLEWVAVISYDGSNKYFADSVKGRFTISRDNSKNTLYLQMNSLRPEDTAVYYCAKVGMEYSSGWYGEEIDFWGQGTLVTVSS", "VL": "not shown"}, "B19": {"name": "C032 (antibody, V domains shown)", "VH": "EVQLVQSGAEVKKPGESLKISCKGSGYSFTSYWIGWVRQMPGKGLEWMGIIYPGDSDTRYSPSFQGQVTISADKSISTAYLQWSSLKASDTAMYYCARGVAVDWYFDLWGRGTLVTVSS", "VL": "QSVLTQPPSVSGAPGQRVTISCTGSSSNIGAGYDVHWYQQLPGTAPKLLIYGNSNRPSGVPDRFSGSKSGTSASLAITGLQAEDEADYYCQSYDSSLSALYVFGTGTKVTVL"}, "B20": {"name": "C160 (antibody, V domains shown)", "VH": "QVQLVQSGAEVKKPGASVKVSCKASGYTFTSYGISWVRQAPGQGLEWMGWISAYNGNTNYAQKLQGRVTMTTDTSTSTAYMELRSLRSDDTAVYYCARVPASYGDDDYYYYYGMDVWGQGTTVTVSS", "VL": "SYELTQPPSVSVSPGQTARITCSGDALPKQYAYWYQQKPGQAPVLVIYKDSERPSGIPERFSGSSSGTTVTLTISGVQAEDEADYYCQSADSSGTLWVFGGGTKLTVL"}, "B21": {"name": "C038 (antibody, V domains shown)", "VH": "VQLVESGGGVVQPGRSLRLSCAASGFTFNRIAMYWVRQAPGKGLEWVAVISFDGSYEYYAESVKGRFAISRDNSKNTLYLQMNSLRAEDTAVYYCAKSPMGYCTNGVCYPDSWGQGTLVTVSS", "VL": "NFMLTQPHSVSESPGKTVTISCTGSSGSIASNYVQWYQQRPGSAPTTVIYEDTQRPSGVPDRFSGSIDSSSNSASLTISGLKTEDEADYYCQSYDINSRWVFGGGTKLTVL"}, "B22": {"name": "C040 (antibody, V domains shown)", "VH": "not shown", "VL": "B10 VL with K16Q, I47V, F49D, R94S, H96Q, V97G"}, "B23": {"name": "C037 (antibody, V domains shown)", "VH": "QLVQSGPEVKKPGTSVKVSCKASGFTFTSSAMQWVRQARGQRLEWIGWIVVGSGNTNYAQKFQERVTITRDMSTSTAYMELSSLRSEDTAVYYCAAPYCSGGSCNDAFDIWGQGTMVTVSS", "VL": "not shown"}},
  "note": "Numbering of substitutions follows the chain as printed.",
  "data": [
    {"molecular_target": "SARS-CoV RBD (SARS-CoV, UniProt P59594)", "assay": "ELISA", "units": {"EC50": "ng/mL"}, "values": [
      {"binder": "B1", "EC50": "> 1000"},
      {"binder": "B2", "EC50": "> 1000"},
      {"binder": "B3", "EC50": "> 1000"},
      {"binder": "B4", "EC50": "> 1000"},
      {"binder": "B5", "EC50": "> 1000"},
      {"binder": "B6", "EC50": "> 1000"},
      {"binder": "B7", "EC50": "> 1000"},
      {"binder": "B8", "EC50": "> 1000"},
      {"binder": "B9", "EC50": "> 1000"},
      {"binder": "B10", "EC50": 107},
      {"binder": "B11", "EC50": "> 1000"}
    ]},
    {"molecular_target": "SARS-CoV-2 RBD (SARS-CoV-2, UniProt P0DTC2)", "assay": "ELISA", "units": {"EC50": "ng/mL"}, "values": [
      {"binder": "B12", "EC50": 64.1},
      {"binder": "B13", "EC50": 1.77},
      {"binder": "B14", "EC50": 1.63},
      {"binder": "B15", "EC50": 1.18},
      {"binder": "B16", "EC50": 1.16},
      {"binder": "B2", "EC50": 3.24},
      {"binder": "B3", "EC50": 3.38},
      {"binder": "B17", "EC50": 1.88},
      {"binder": "B18", "EC50": 1.79},
      {"binder": "B4", "EC50": 3.17},
      {"binder": "B5", "EC50": 5.44},
      {"binder": "B6", "EC50": 1.51},
      {"binder": "B7", "EC50": 4.54},
      {"binder": "B19", "EC50": 99.3},
      {"binder": "B20", "EC50": 2.54},
      {"binder": "B8", "EC50": "> 1000"},
      {"binder": "B21", "EC50": 4.69},
      {"binder": "B9", "EC50": 3.57},
      {"binder": "B10", "EC50": 19},
      {"binder": "B22", "EC50": 11.1},
      {"binder": "B11", "EC50": "> 1000"},
      {"binder": "B23", "EC50": 1.93}
    ]}
  ]
}
